Data from US20190161517A1 (ENSOL BIOSCIENCES, published 2019).

B1: peptide of Example 1 (DGEFF) (peptide)
peptide: DGEFF
notes: Synthetic peptide made by AnyGen Co., Ltd
B2: peptide of Example 2 (DGEF) (peptide)
peptide: DGEF
notes: as for B1

Target: T1, extracellular domain recombinant protein RAGE (11629-H08H, Sino Biological Inc.) (UniProt Q15109 23-342, labeled with RED fluorescent dye NT-647-NHS (sites not given))
T1 construct: extracellular domain; Bought protein; also called Receptor for Advanced Glycation End products
Assay: MST (Microscale Thermophoresis), NT-647-labeled RAGE extracellular domain, peptide titrated 50 uM to 1.52 nM, mean of three runs
Method: Specifically, the binding capacity of the peptide of Example 1 or 2 to RAGE was measured using MST (Microscale Thermophoresis).
Using a kit {Monolith NT™ Protein Labeling Kit RED-NHS (L001, NanoTemper Technologies)}, an extracellular domain recombinant protein RAGE (11629-H08H, Sino Biological Inc.) was bound to a RED fluorescent dye NT-647-NHS and then purified. Thereafter, a RAGE solution in which the concentration of the RED fluorescent dye NT-647-NHS labeled RAGE in an MST buffer (50 mM Tris-HCl pH 7.4, 150 mM NaCl, 10 mM MgCl₂, 0.05% Tween-20) solution was 20 μM was prepared. Also, a peptide solution was prepared in a 16-step dilution series, in which dilution was repeated with the MST buffer until the concentration of the peptide of Example 1 or Example 2 became 1.52 nM starting from 50 μM. Thereafter, the RAGE solution and the peptide solution were mixed in amounts of 100 μl each, injected into a capillary tube and then placed in the order of concentration in a Monolith NT. 115 tray (G009, NanoTemper technologies). The software was operated in accordance with the Monolith NT. 115 operating method. The same procedure was repeated three times, and the mean value of Kd (dissociation constant) was obtained.

T1 sequence (Q15109 23-342 limits assumed): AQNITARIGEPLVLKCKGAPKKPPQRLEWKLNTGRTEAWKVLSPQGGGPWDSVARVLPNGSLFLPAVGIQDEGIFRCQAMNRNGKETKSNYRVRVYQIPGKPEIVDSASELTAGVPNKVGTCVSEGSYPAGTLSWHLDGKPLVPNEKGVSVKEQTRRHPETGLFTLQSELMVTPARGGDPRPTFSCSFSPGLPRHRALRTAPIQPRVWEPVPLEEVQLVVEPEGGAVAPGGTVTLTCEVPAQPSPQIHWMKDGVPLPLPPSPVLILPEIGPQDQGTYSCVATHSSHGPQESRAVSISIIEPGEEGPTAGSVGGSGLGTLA

Row | Binder | Kd
1 | B1 | 76.9 nM
2 | B2 | 80.9 nM
